Data reported in paper PMC9482650, “Quantitative fragmentomics allow affinity mapping of interactomes” (Nature Communications, 2022).

Key:
Test in all cases: holdup assay
Parameters in all cases: key: below the threshold = too weak to quantify, mostly under pKd 3.1 to 4
AHNAK1, Q09666 = molecular target: AHNAK1, Q09666
APBA1_1, Q02410 = molecular target: T1, APBA1_1, Q02410
T1 sequence (Q02410 651-752, limits assumed, looked up): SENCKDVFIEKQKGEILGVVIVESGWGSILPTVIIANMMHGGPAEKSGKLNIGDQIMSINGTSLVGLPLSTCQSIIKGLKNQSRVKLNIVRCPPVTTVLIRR

ARHGEF12, Q9NZN5-2 = molecular target: ARHGEF12, Q9NZN5-2
ARHGEF12, Q9NZN5-2, sequence (Q9NZN5 other isoform, or with tags, fused parts or gaps): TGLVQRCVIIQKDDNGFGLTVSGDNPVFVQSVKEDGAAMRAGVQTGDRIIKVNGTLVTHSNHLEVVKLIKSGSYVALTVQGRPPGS

CASK, O14936 = molecular target: CASK, O14936
CASK, O14936, sequence (O14936 487-570): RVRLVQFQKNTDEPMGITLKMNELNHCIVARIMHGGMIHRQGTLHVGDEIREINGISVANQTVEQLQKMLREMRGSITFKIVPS

DLG3_3, Q92796 = molecular target: T2, DLG3_3, Q92796
T2 sequence (Q92796 374-475, limits assumed, looked up): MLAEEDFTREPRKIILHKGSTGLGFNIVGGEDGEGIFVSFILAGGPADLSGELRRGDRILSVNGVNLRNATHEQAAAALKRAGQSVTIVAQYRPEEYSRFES

GORASP1, Q9BQQ3 = molecular target: GORASP1, Q9BQQ3
GORASP1, Q9BQQ3, sequence (Q9BQQ3 1-208): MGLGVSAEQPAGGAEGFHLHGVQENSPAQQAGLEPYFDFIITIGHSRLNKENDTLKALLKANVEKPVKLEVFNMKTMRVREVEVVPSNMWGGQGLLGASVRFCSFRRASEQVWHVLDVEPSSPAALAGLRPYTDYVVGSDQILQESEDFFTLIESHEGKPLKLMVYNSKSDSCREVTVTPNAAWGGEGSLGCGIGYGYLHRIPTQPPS

GRIP1_2, Q9Y3R0 = molecular target: T3, GRIP1_2, Q9Y3R0
T3 sequence (Q9Y3R0 145-248, limits assumed, looked up): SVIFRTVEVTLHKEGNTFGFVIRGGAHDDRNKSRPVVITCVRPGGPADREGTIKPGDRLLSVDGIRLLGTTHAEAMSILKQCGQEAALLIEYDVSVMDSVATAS

GRIP1_7, Q9Y3R0 = molecular target: T4, GRIP1_7, Q9Y3R0
T4 sequence (Q9Y3R0 999-1096, limits assumed, looked up): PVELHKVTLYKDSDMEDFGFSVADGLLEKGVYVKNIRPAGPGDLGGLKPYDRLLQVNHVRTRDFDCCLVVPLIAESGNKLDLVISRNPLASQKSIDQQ

HTRA2, O43464 = molecular target: HTRA2, O43464
HTRA2, O43464, sequence (O43464 355-458): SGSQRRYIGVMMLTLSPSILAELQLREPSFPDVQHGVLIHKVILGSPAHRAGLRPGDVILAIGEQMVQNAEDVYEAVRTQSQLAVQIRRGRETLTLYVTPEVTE

Inadl_1, Q8NI35 = molecular target: Inadl_1, Q8NI35
Inadl_1, Q8NI35, sequence (Q8NI35 113-229): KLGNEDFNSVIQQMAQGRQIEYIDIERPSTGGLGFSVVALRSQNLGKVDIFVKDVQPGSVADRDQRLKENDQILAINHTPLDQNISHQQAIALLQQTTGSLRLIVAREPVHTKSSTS

Inadl_8, Q8NI35 = molecular target: Inadl_8, Q8NI35
Inadl_8, Q8NI35, sequence (Q8NI35 1425-1530): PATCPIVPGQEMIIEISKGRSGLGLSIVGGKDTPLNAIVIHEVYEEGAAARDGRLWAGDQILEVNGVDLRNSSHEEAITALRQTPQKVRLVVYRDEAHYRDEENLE

LIN7B, Q9HAP6 = molecular target: T5, LIN7B, Q9HAP6
T5 sequence (Q9HAP6 88-185, limits assumed, looked up): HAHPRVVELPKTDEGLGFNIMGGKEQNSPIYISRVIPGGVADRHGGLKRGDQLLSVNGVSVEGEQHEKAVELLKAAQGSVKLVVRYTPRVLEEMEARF

LIN7C, Q9NUP9 = molecular target: T6, LIN7C, Q9NUP9
T6 sequence (Q9NUP9 88-185, limits assumed, looked up): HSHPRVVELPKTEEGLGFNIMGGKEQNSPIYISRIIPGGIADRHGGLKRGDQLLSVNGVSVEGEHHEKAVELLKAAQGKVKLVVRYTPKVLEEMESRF

LNX1_1, Q8TBB1 = molecular target: LNX1_1, Q8TBB1
LNX1_1, Q8TBB1, sequence (Q8TBB1 261-371): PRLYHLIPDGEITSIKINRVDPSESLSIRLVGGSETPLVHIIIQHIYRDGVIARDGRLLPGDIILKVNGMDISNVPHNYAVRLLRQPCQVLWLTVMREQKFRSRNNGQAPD

MAGI2_3, Q86UL8 = molecular target: MAGI2_3, Q86UL8
MAGI2_3, Q86UL8, sequence (Q86UL8 600-682): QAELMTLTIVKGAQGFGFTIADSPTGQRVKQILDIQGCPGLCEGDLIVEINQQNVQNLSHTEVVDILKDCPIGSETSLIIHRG

MAGI2_5, Q86UL8 = molecular target: MAGI2_5, Q86UL8
MAGI2_5, Q86UL8, sequence (Q86UL8 915-1017): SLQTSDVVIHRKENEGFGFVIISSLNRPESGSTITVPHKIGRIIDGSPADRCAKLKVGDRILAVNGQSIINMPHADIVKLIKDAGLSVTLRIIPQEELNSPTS

MAGI3_2, Q5TCQ9 = molecular target: MAGI3_2, Q5TCQ9
MAGI3_2, Q5TCQ9, sequence (Q5TCQ9 398-503): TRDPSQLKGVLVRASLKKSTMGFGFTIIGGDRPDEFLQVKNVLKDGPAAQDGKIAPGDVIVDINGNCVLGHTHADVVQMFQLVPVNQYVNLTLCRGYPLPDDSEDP

MAST1, Q9Y2H9 = molecular target: MAST1, Q9Y2H9
MAST1, Q9Y2H9, sequence (Q9Y2H9 962-1065): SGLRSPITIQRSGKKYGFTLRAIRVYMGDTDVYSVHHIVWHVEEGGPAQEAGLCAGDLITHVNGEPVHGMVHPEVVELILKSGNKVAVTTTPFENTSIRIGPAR

MAST2, Q6P0Q8 = molecular target: MAST2, Q6P0Q8
MAST2, Q6P0Q8, sequence (Q6P0Q8 1099-1202): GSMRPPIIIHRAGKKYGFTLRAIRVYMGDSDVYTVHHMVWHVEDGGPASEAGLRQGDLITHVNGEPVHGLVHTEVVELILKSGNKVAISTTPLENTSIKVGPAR

NHERF2_2, Q15599 = molecular target: NHERF2_2, Q15599
NHERF2_2, Q15599, sequence (Q15599 142-238): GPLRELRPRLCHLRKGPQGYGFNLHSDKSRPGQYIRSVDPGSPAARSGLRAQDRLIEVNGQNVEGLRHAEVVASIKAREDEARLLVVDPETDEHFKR

NHERF4_1, Q86UT5-2 = molecular target: NHERF4_1, Q86UT5-2
NHERF4_1, Q86UT5-2, sequence (Q86UT5 other isoform, or with tags, fused parts or gaps): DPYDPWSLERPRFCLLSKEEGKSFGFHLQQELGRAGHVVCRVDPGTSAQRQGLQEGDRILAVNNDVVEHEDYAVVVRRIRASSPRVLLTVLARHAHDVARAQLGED

PARD3_3, Q8TEW0 = molecular target: PARD3_3, Q8TEW0
PARD3_3, Q8TEW0, sequence (Q8TEW0 582-685): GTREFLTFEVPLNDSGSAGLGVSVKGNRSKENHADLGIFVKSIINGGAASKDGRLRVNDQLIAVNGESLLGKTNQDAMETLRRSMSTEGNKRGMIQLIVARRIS

PDLIM1, O00151 = molecular target: PDLIM1, O00151
PDLIM1, O00151, sequence (O00151 1-87): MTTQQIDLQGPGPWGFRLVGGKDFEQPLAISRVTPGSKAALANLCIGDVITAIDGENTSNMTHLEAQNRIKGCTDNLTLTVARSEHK

PTPN3, P26045 = molecular target: PTPN3, P26045
PTPN3, P26045, sequence (P26045 505-587): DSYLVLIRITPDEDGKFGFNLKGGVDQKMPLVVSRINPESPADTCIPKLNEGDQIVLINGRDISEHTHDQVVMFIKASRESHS

SCRIB_1, Q14160 = molecular target: SCRIB_1, Q14160
SCRIB_1, Q14160, sequence (Q14160 718-814): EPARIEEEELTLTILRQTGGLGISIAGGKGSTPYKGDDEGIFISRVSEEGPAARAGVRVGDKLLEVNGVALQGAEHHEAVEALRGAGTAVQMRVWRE

SCRIB_2, Q14160 = molecular target: SCRIB_2, Q14160
SCRIB_2, Q14160, sequence (Q14160 857-960): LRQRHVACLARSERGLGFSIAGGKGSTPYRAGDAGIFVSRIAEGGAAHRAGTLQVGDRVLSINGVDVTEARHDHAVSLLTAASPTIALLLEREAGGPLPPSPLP

SCRIB_3, Q14160 = molecular target: SCRIB_3, Q14160
SCRIB_3, Q14160, sequence (Q14160 999-1103): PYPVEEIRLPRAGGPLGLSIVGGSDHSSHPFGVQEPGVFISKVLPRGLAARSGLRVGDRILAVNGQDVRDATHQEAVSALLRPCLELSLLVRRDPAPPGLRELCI

SNTG2, Q9NY99 = molecular target: T7, SNTG2, Q9NY99
T7 sequence (Q9NY99 68-166, limits assumed, looked up): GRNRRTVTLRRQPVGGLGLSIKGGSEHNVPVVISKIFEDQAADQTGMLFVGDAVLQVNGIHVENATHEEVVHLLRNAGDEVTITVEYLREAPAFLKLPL

SNX27, Q96L92 = molecular target: SNX27, Q96L92
TJP1_2, Q07157 = molecular target: TJP1_2, Q07157
TJP1_2, Q07157, sequence (Q07157 181-274): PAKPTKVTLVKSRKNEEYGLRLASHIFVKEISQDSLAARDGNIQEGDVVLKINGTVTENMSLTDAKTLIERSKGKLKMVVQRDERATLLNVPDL

TJP3_3, O95049 = molecular target: T8, TJP3_3, O95049
T8 sequence (O95049 375-456, limits assumed, looked up): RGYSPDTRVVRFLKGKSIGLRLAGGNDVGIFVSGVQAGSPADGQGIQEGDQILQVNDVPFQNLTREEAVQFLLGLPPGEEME

[1] = plain residues with an end cap or a label only (N-terminal biotin on a linker: gsgsgs; C-terminal amide)
[2] = plain residues with an end cap or a label only (N-terminal biotin on a linker: ahx)
[3] = plain residues with an end cap or a label only (N-terminal biotin on a linker: ttds)

AHNAK1, Q09666, sequence (Q09666 4-100): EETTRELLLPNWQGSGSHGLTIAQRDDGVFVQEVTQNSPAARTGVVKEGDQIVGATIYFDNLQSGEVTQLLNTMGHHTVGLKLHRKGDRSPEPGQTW

For YGIVQETTFDLGGDIH [MLLT4_int, P55196], the pKd (AHNAK1, Q09666; [1]) was “below the threshold”, the pKd (APBA1_1, Q02410; [1]) was “below the threshold” and the pKd (ARHGEF12, Q9NZN5-2; [1]) was “below the threshold”. The pKd (CASK, O14936; [1]) was “below the threshold”, the pKd (DLG3_3, Q92796; [1]) was “below the threshold” and the pKd (GORASP1, Q9BQQ3; [1]) was “below the threshold”. For the same binder, the pKd (GRIP1_2, Q9Y3R0; [1]) was “below the threshold”, the pKd (GRIP1_7, Q9Y3R0; [1]) was “below the threshold” and the pKd (HTRA2, O43464; [1]) was “below the threshold”. For the same binder, the pKd (Inadl_1, Q8NI35; [1]) was “below the threshold”, the pKd (Inadl_8, Q8NI35; [1]) was “below the threshold” and the pKd (LIN7B, Q9HAP6; [1]) was 3.58. The pKd (LIN7C, Q9NUP9; [1]) was 3.85, the pKd (LNX1_1, Q8TBB1; [1]) was “below the threshold” and the pKd (MAGI2_3, Q86UL8; [1]) was “below the threshold”. The pKd (MAGI2_5, Q86UL8; [1]) was “below the threshold”, the pKd (MAGI3_2, Q5TCQ9; [1]) was “below the threshold” and the pKd (MAST1, Q9Y2H9; [1]) was “below the threshold”. For the same binder, the pKd (MAST2, Q6P0Q8; [1]) was 4.01, the pKd (NHERF2_2, Q15599; [1]) was “below the threshold” and the pKd (NHERF4_1, Q86UT5-2; [1]) was “below the threshold”. For the same binder, the pKd (PARD3_3, Q8TEW0; [1]) was “below the threshold”, the pKd (PDLIM1, O00151; [1]) was “below the threshold” and the pKd (PTPN3, P26045; [1]) was 3.88. It also gave a pKd (SCRIB_1, Q14160; [1]) of 4.3, a pKd (SCRIB_2, Q14160; [1]) of 3.65 and a pKd (SCRIB_3, Q14160; [1]) of 4.61. For the same binder, the pKd (SNTG2, Q9NY99; [1]) was “below the threshold”, the pKd (SNX27, Q96L92; [1]) was 4.59 and the pKd (TJP1_2, Q07157; [1]) was “below the threshold”. For the same binder, the pKd (TJP3_3, O95049; [1]) was “below the threshold”.

RAVEEEESRF [PSCDBP, O60759] was tested, and the pKd (AHNAK1, Q09666; [2]) was “below the threshold”, the pKd (APBA1_1, Q02410; [2]) was “below the threshold” and the pKd (ARHGEF12, Q9NZN5-2; [2]) was “below the threshold”. The pKd (CASK, O14936; [2]) was “below the threshold”, the pKd (DLG3_3, Q92796; [2]) was “below the threshold” and the pKd (GORASP1, Q9BQQ3; [2]) was “below the threshold”. The pKd (GRIP1_2, Q9Y3R0; [2]) was “below the threshold”, the pKd (GRIP1_7, Q9Y3R0; [2]) was “below the threshold” and the pKd (HTRA2, O43464; [2]) was “below the threshold”. For the same binder, the pKd (Inadl_1, Q8NI35; [2]) was “below the threshold”, the pKd (Inadl_8, Q8NI35; [2]) was “below the threshold” and the pKd (LIN7B, Q9HAP6; [2]) was “below the threshold”. The pKd (LIN7C, Q9NUP9; [2]) was “below the threshold”, the pKd (LNX1_1, Q8TBB1; [2]) was “below the threshold” and the pKd (MAGI2_3, Q86UL8; [2]) was “below the threshold”. For the same binder, the pKd (MAGI2_5, Q86UL8; [2]) was 3.7, the pKd (MAGI3_2, Q5TCQ9; [2]) was “below the threshold” and the pKd (MAST1, Q9Y2H9; [2]) was 4.02. For the same binder, the pKd (MAST2, Q6P0Q8; [2]) was 4.45, the pKd (NHERF2_2, Q15599; [2]) was 5 and the pKd (NHERF4_1, Q86UT5-2; [2]) was “below the threshold”. The pKd (PARD3_3, Q8TEW0; [2]) was 4.09, the pKd (PDLIM1, O00151; [2]) was “below the threshold” and the pKd (PTPN3, P26045; [2]) was 3.98. For the same binder, the pKd (SCRIB_1, Q14160; [2]) was “below the threshold”, the pKd (SCRIB_2, Q14160; [2]) was “below the threshold” and the pKd (SCRIB_3, Q14160; [2]) was “below the threshold”. The pKd (SNTG2, Q9NY99; [2]) was “below the threshold”, the pKd (SNX27, Q96L92; [2]) was 5.64 and the pKd (TJP1_2, Q07157; [2]) was “below the threshold”. The pKd (TJP3_3, O95049; [2]) was “below the threshold”.

In the case of RPLPRKVSQL [DOCK4, Q8N1I0], the pKd (AHNAK1, Q09666; [3]) is reported as “below the threshold”, the pKd (APBA1_1, Q02410; [3]) is reported as “below the threshold” and the pKd (ARHGEF12, Q9NZN5-2; [3]) is reported as 4.62. The pKd (CASK, O14936; [3]) was “below the threshold”, the pKd (DLG3_3, Q92796; [3]) was “below the threshold” and the pKd (GORASP1, Q9BQQ3; [3]) was 3.55. The pKd (GRIP1_2, Q9Y3R0; [3]) was “below the threshold”, the pKd (GRIP1_7, Q9Y3R0; [3]) was “below the threshold” and the pKd (HTRA2, O43464; [3]) was “below the threshold”. For the same binder, the pKd (Inadl_1, Q8NI35; [3]) was “below the threshold”, the pKd (Inadl_8, Q8NI35; [3]) was “below the threshold” and the pKd (LIN7B, Q9HAP6; [3]) was “below the threshold”. For the same binder, the pKd (LIN7C, Q9NUP9; [3]) was “below the threshold”, the pKd (LNX1_1, Q8TBB1; [3]) was “below the threshold” and the pKd (MAGI2_3, Q86UL8; [3]) was “below the threshold”. For the same binder, the pKd (MAGI2_5, Q86UL8; [3]) was “below the threshold”, the pKd (MAGI3_2, Q5TCQ9; [3]) was 4.69 and the pKd (MAST1, Q9Y2H9; [3]) was 3.86. For the same binder, the pKd (MAST2, Q6P0Q8; [3]) was 4.58, the pKd (NHERF2_2, Q15599; [3]) was “below the threshold” and the pKd (NHERF4_1, Q86UT5-2; [3]) was 4.32. The pKd (PARD3_3, Q8TEW0; [3]) was “below the threshold”, the pKd (PDLIM1, O00151; [3]) was “below the threshold” and the pKd (PTPN3, P26045; [3]) was 4.73. The pKd (SCRIB_1, Q14160; [3]) was “below the threshold”, the pKd (SCRIB_2, Q14160; [3]) was “below the threshold” and the pKd (SCRIB_3, Q14160; [3]) was 4.72. For the same binder, the pKd (SNTG2, Q9NY99; [3]) was 3.77, the pKd (SNX27, Q96L92; [3]) was “below the threshold” and the pKd (TJP1_2, Q07157; [3]) was “below the threshold”. For the same binder, the pKd (TJP3_3, O95049; [3]) was “below the threshold”.
